Consider 125 sequences from the supplement of paper PMC9112550, “Optimization of the antimicrobial peptide Bac7 by deep mutational scanning” (BMC Biology, 2022).

The data set relates to Escherichia coli TOP10. Put plainly: shrunken log2 fold change of peptide-encoding DNA abundance (4.5 h post-induction vs induction); higher = less antimicrobial activity (less host growth inhibition). As to conditions: time post-induction: 4.5 h; library: site-saturation at positions 5, 18, 19, 20.
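Further: peptides expressed intracellularly from a pBAD plasmid library in pooled LB shake-flask culture, induced with 0.3% L-arabinose, DNA abundance read by NGS, three biological replicates, DESeq2 with apeglm shrinkage.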

As for RRIRSRPPRLPRPRPRPCMMPRP, the “shrunken log2 fold change” value is 0.0683. The figure for RRIRMRPPRLPRPRPRPCFIPRP is -0.496; for RRIRCRPPRLPRPRPRPLKRPRP it is -0.052. As for RRIRLRPPRLPRPRPRPFYKPRP, the figure is -0.349; as for RRIRKRPPRLPRPRPRPIDVPRP, 0.191. Turning to RRIRKRPPRLPRPRPRPGQFPRP, the “shrunken log2 fold change” value was determined as 0.00171. The figure for RRIRGRPPRLPRPRPRPMEKPRP is 0.0535. The figure for RRIRCRPPRLPRPRPRPDCLPRP is -0.494; for RRIRWRPPRLPRPRPRPFKRPRP it is 0.0707; for RRIRPRPPRLPRPRPRPRSYPRP it is 0.199. As for RRIRKRPPRLPRPRPRPWKYPRP, the figure is -0.067.

In the case of RRIRPRPPRLPRPRPRPQWIPRP, the “shrunken log2 fold change” value turned out to be 0.0662.

As for RRIRHRPPRLPRPRPRPRLRPRP, the “shrunken log2 fold change” value was 0.207. As for RRIRSRPPRLPRPRPRPGDTPRP, the figure is 1.51.

With RRIRYRPPRLPRPRPRPSMYPRP, the “shrunken log2 fold change” value is -0.418. As for RRIRTRPPRLPRPRPRPLWEPRP, the figure is -0.0281. As for RRIRYRPPRLPRPRPRPTVAPRP, the figure is 0.0691; as for RRIRRRPPRLPRPRPRPGVKPRP, 0.187; as for RRIRSRPPRLPRPRPRPLFMPRP, -0.236. As for RRIRPRPPRLPRPRPRPMCQPRP, the figure is 0.27. As to RRIRLRPPRLPRPRPRPNAEPRP, the “shrunken log2 fold change” value turned out to be 0.143.

RRIRIRPPRLPRPRPRPGEHPRP: the “shrunken log2 fold change” value is -0.0955. As for RRIRVRPPRLPRPRPRPLCRPRP, the figure is -0.149; as for RRIRLRPPRLPRPRPRPWFMPRP, -0.0837; as for RRIRQRPPRLPRPRPRPDFVPRP, 0.0112.

With RRIRKRPPRLPRPRPRPQVRPRP, the “shrunken log2 fold change” value was -0.117.

For RRIRYRPPRLPRPRPRPEGVPRP, the “shrunken log2 fold change” value was -0.0041. For RRIRNRPPRLPRPRPRPETKPRP, the “shrunken log2 fold change” value came out at 0.384. The figure for RRIRCRPPRLPRPRPRPERYPRP is -0.153; for RRIRLRPPRLPRPRPRPDCAPRP it is 0.239.

As to RRIRERPPRLPRPRPRPCFQPRP, the “shrunken log2 fold change” value is -0.25.

Consider RRIRSRPPRLPRPRPRPVDPPRP, for which the “shrunken log2 fold change” value was determined as 0.00726. Turning to RRIRARPPRLPRPRPRPHSIPRP, the “shrunken log2 fold change” value is -0.344. Consider RRIRFRPPRLPRPRPRPSTSPRP, for which the “shrunken log2 fold change” value was -0.0297.

Turning to RRIRTRPPRLPRPRPRPTVWPRP, the “shrunken log2 fold change” value was -0.049. As for RRIRCRPPRLPRPRPRPQRGPRP, the figure is 0.337; as for RRIRQRPPRLPRPRPRPNEEPRP, 2.87.

Take RRIRIRPPRLPRPRPRPKWIPRP: the “shrunken log2 fold change” value is -0.77.

Consider RRIRERPPRLPRPRPRPEGYPRP, for which the “shrunken log2 fold change” value is -0.00062. The figure for RRIRLRPPRLPRPRPRPHGTPRP is 0.0824; for RRIRHRPPRLPRPRPRPPQVPRP it is -0.0255; for RRIRQRPPRLPRPRPRPASQPRP it is 0.0572. As for RRIRPRPPRLPRPRPRPDKPPRP, the figure is -0.233; as for RRIRTRPPRLPRPRPRPNLFPRP, 0.0121. The figure for RRIRLRPPRLPRPRPRPWCNPRP is -0.121; for RRIRVRPPRLPRPRPRPFLHPRP it is -0.13; for RRIRFRPPRLPRPRPRPDHMPRP it is -0.585. As to RRIRFRPPRLPRPRPRPGHQPRP, the “shrunken log2 fold change” value is -0.233.

RRIRSRPPRLPRPRPRPFHSPRP: the “shrunken log2 fold change” value was -0.0807. As for RRIRIRPPRLPRPRPRPDDHPRP, the figure is 0.07; as for RRIRRRPPRLPRPRPRPQTYPRP, -0.0324; as for RRIRGRPPRLPRPRPRPCGGPRP, 0.472. The figure for RRIRQRPPRLPRPRPRPYNMPRP is -0.316. As to RRIRFRPPRLPRPRPRPTFMPRP, the “shrunken log2 fold change” value is -0.444.

RRIRPRPPRLPRPRPRPMMPPRP: the “shrunken log2 fold change” value is -0.141.

In the case of RRIRRRPPRLPRPRPRPQIKPRP, the “shrunken log2 fold change” value is -0.155. The figure for RRIRLRPPRLPRPRPRPPTQPRP is 0.376; for RRIRCRPPRLPRPRPRPAVVPRP it is -0.243. For RRIRYRPPRLPRPRPRPEDNPRP, the “shrunken log2 fold change” value was -0.0125. On to RRIRRRPPRLPRPRPRPLGEPRP, for which the “shrunken log2 fold change” value was 0.144. The figure for RRIRDRPPRLPRPRPRPSILPRP is 0.202; for RRIRERPPRLPRPRPRPWGMPRP it is 0.115; for RRIRDRPPRLPRPRPRPHSCPRP it is -0.00804. As for RRIRERPPRLPRPRPRPILAPRP, the figure is -0.349; as for RRIRARPPRLPRPRPRPKINPRP, -0.0292. The figure for RRIRERPPRLPRPRPRPKWCPRP is -0.0117; for RRIRMRPPRLPRPRPRPHPPPRP it is 1.26. RRIRPRPPRLPRPRPRPVRQPRP: the “shrunken log2 fold change” value came to 0.219. The figure for RRIRDRPPRLPRPRPRPPDGPRP is 0.577; for RRIRHRPPRLPRPRPRPLIMPRP it is -0.561. Regarding RRIRVRPPRLPRPRPRPTTPPRP, the “shrunken log2 fold change” value was found to be 0.347.

RRIRFRPPRLPRPRPRPGVKPRP: the “shrunken log2 fold change” value is -0.0657. As for RRIRQRPPRLPRPRPRPQMIPRP, the figure is -0.0977.

Turning to RRIRERPPRLPRPRPRPFMFPRP, the “shrunken log2 fold change” value is -0.531. For the sequence RRIRKRPPRLPRPRPRPYLRPRP, the “shrunken log2 fold change” value was -0.0481. The figure for RRIRGRPPRLPRPRPRPSIYPRP is 0.302. As for RRIRWRPPRLPRPRPRPSLGPRP, the figure is 0.338; as for RRIRWRPPRLPRPRPRPQIPPRP, -0.493.

For the sequence RRIRCRPPRLPRPRPRPDYWPRP, the “shrunken log2 fold change” value was -0.437. Regarding RRIRARPPRLPRPRPRPFHCPRP, the “shrunken log2 fold change” value was 0.252. As for RRIRARPPRLPRPRPRPYISPRP, the figure is -0.132.

In the case of RRIRQRPPRLPRPRPRPSYVPRP, the “shrunken log2 fold change” value was -1.04. The figure for RRIRLRPPRLPRPRPRPKNQPRP is -0.202; for RRIRQRPPRLPRPRPRPRDPPRP it is 0.604. As for RRIRVRPPRLPRPRPRPTAPPRP, the figure is 0.175. With RRIRYRPPRLPRPRPRPPVFPRP, the “shrunken log2 fold change” value came out at 0.0494. As for RRIRPRPPRLPRPRPRPLLVPRP, the figure is 0.1; as for RRIRYRPPRLPRPRPRPPKNPRP, -0.164.

As to RRIRTRPPRLPRPRPRPCCPPRP, the “shrunken log2 fold change” value is -0.305. As to RRIRYRPPRLPRPRPRPNYKPRP, the “shrunken log2 fold change” value is -1.01. Turning to RRIRERPPRLPRPRPRPEMYPRP, the “shrunken log2 fold change” value was -0.00136. The figure for RRIRVRPPRLPRPRPRPSYHPRP is -0.819; for RRIRDRPPRLPRPRPRPSCVPRP it is 0.282; for RRIRDRPPRLPRPRPRPLCTPRP it is 0.704. As for RRIRTRPPRLPRPRPRPIFFPRP, the figure is 0.0107; as for RRIRARPPRLPRPRPRPSDFPRP, 0.0983; as for RRIRERPPRLPRPRPRPVWGPRP, 0.259. As for RRIRWRPPRLPRPRPRPSGNPRP, the figure is -0.0162; as for RRIRRRPPRLPRPRPRPRHIPRP, 0.945. Turning to RRIRDRPPRLPRPRPRPDYAPRP, the “shrunken log2 fold change” value worked out at 0.016.

In the case of RRIRHRPPRLPRPRPRPTKQPRP, the “shrunken log2 fold change” value is -0.0343. As for RRIRYRPPRLPRPRPRPSNEPRP, the figure is -0.474; as for RRIRPRPPRLPRPRPRPSNNPRP, -0.542. As for RRIRYRPPRLPRPRPRPPQDPRP, the figure is -0.362; as for RRIRPRPPRLPRPRPRPFNGPRP, -0.014. As to RRIRARPPRLPRPRPRPMELPRP, the “shrunken log2 fold change” value amounted to 0.114. As for RRIRMRPPRLPRPRPRPMPAPRP, the figure is 1.07; as for RRIRFRPPRLPRPRPRPADGPRP, 0.183; as for RRIRPRPPRLPRPRPRPMEHPRP, -0.0171. The figure for RRIRPRPPRLPRPRPRPPIRPRP is 0.41. The figure for RRIRKRPPRLPRPRPRPCHYPRP is -0.117.

For the sequence RRIRMRPPRLPRPRPRPQQPPRP, the “shrunken log2 fold change” value is 0.0363. As for RRIRKRPPRLPRPRPRPVTDPRP, the figure is -0.0127.

In the case of RRIRMRPPRLPRPRPRPDLLPRP, the “shrunken log2 fold change” value worked out at 2.73. The figure for RRIRCRPPRLPRPRPRPLMIPRP is -0.431; for RRIRRRPPRLPRPRPRPQFWPRP it is 0.172; for RRIRGRPPRLPRPRPRPDRWPRP it is 0.703. The figure for RRIRHRPPRLPRPRPRPLGIPRP is -0.148; for RRIRFRPPRLPRPRPRPDQYPRP it is -0.169; for RRIRQRPPRLPRPRPRPNHRPRP it is -0.0657. As for RRIRYRPPRLPRPRPRPSAEPRP, the figure is -0.0651; as for RRIRIRPPRLPRPRPRPGWEPRP, 0.0557; as for RRIRCRPPRLPRPRPRPMADPRP, -0.0181.

As to RRIRKRPPRLPRPRPRPWREPRP, the “shrunken log2 fold change” value turned out to be 0.184. As for RRIRNRPPRLPRPRPRPMEVPRP, the figure is -0.052.
